Data published in patent US20150344570A1 (published 2015).

T1: FcγRIIb (human, UniProt P31994 43-217)
T1 construct: extracellular domain; also called FcgRIIb; 2b
T1 sequence (looked up): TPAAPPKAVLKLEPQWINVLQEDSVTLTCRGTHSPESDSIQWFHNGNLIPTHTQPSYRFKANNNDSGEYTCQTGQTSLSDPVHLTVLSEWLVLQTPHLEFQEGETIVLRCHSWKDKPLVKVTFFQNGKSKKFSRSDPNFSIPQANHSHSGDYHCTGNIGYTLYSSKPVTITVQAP

T2: FcγRIIa H (human, UniProt P12318 34-217)
T2 construct: extracellular domain; also called FcgRIIa H; FcγRIIa type H
T2 sequence (looked up): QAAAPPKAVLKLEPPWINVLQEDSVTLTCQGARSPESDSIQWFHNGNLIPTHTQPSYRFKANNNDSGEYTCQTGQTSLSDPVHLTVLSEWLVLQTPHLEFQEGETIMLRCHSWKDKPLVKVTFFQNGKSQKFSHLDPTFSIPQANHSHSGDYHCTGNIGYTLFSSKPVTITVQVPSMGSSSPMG

T3: FcγRIIb extracellular domain with C-terminal His tag (human, UniProt P31994 43-217)
T3 construct: extracellular domain; also called 2b; FcgRIIb; not shown: His tag at the C terminus
T3 sequence (looked up): T1 sequence (looked up)

B1: GpH7-A5/GpH7-B3 variant L234_09D/GpL16-k0 (antibody, human IgG1, kappa)
heavy 1: not shown
heavy 2: not shown
light: DIVMTQSPLSLPVTPGEPASISCQASESLVHSNRNTYLHWYLQKPGQSPQLLIYKVSNRFSGVPDRFSGSGSGTDFTLKISRVEAEDVGVYYCSQNTHVPPTFGQGTKVEIERTVAAPSVFIFPPSDEQLKSGTASVVCLLNNFYPREAKVQWKVDNALQSGNSQESVTEQDSKDSTYSLSSTLTLSKADYEKHKVYACEVTHQGLSSPVTKSFNRGEC
notes: Heterodimerized antibody, alteration in one H chain only; also called He Ab L234D
B2: GpH7-A5/GpH7-B3 variant P238_03V/GpL16-k0 (antibody, human IgG1, kappa)
heavy 1: not shown
heavy 2: not shown
light: B1 light
notes: Heterodimerized antibody, alteration in one H chain only; also called He Ab P238V
B3: GpH7-A5/GpH7-B3 variant L235_20W/GpL16-k0 (antibody, human IgG1, kappa)
heavy 1: not shown
heavy 2: not shown
light: B1 light
notes: Heterodimerized antibody, alteration in one H chain only; also called He Ab L235W
B4: GpH7-A5/GpH7-B3 variant P238_01G/GpL16-k0 (antibody, human IgG1, kappa)
heavy 1: not shown
heavy 2: not shown
light: B1 light
notes: Heterodimerized antibody, alteration in one H chain only; also called He Ab P238G
B5: GpH7-A5/GpH7-B3 variant P238_04F/GpL16-k0 (antibody, human IgG1, kappa)
heavy 1: not shown
heavy 2: not shown
light: B1 light
notes: Heterodimerized antibody, alteration in one H chain only; also called He Ab P238F
B6: GpH7-A5/GpH7-B3 variant P238_06M/GpL16-k0 (antibody, human IgG1, kappa)
heavy 1: not shown
heavy 2: not shown
light: B1 light
notes: Heterodimerized antibody, alteration in one H chain only; also called He Ab P238M
B7: GpH7-A5/GpH7-B3 variant L235_09D/GpL16-k0 (antibody, human IgG1, kappa)
heavy 1: not shown
heavy 2: not shown
light: B1 light
notes: Heterodimerized antibody, alteration in one H chain only; also called He Ab L235D
B8: GpH7-A5/GpH7-B3 variant L234_10E/GpL16-k0 (antibody, human IgG1, kappa)
heavy 1: not shown
heavy 2: not shown
light: B1 light
notes: Heterodimerized antibody, alteration in one H chain only; also called He Ab L234E
B9: GpH7-A5/GpH7-B3 variant G237_02A/GpL16-k0 (antibody, human IgG1, kappa)
heavy 1: not shown
heavy 2: not shown
light: B1 light
notes: IgG1, anti-glypican-3; also called He Ab
B10: GpH7-A5/GpH7-B3 variant G237_13S/GpL16-k0 (antibody, human IgG1, kappa)
heavy 1: not shown
heavy 2: not shown
light: B1 light
notes: as for B9
B11: GpH7-A5/GpH7-B3 variant G237_19Q/GpL16-k0 (antibody, human IgG1, kappa)
heavy 1: not shown
heavy 2: not shown
light: B1 light
notes: as for B9
B12: GpH7-A5/GpH7-B3 variant G236_09D/GpL16-k0 (antibody, human IgG1, kappa)
heavy 1: not shown
heavy 2: not shown
light: B1 light
notes: as for B9
B13: GpH7-A5/GpH7-B3 variant G236_13S/GpL16-k0 (antibody, human IgG1, kappa)
heavy 1: not shown
heavy 2: not shown
light: B1 light
notes: as for B9
B14: GpH7-A5/GpH7-B3 variant P238_01G/GpL16-k0 (antibody, human IgG1, kappa)
heavy 1: not shown
heavy 2: not shown
light: B1 light
notes: as for B9
B15: GpH7-A5/GpH7-B3 variant G237_16H/GpL16-k0 (antibody, human IgG1, kappa)
heavy 1: not shown
heavy 2: not shown
light: B1 light
notes: as for B9
B16: GpH7-A5/GpH7-B3 variant L235_04F/GpL16-k0 (antibody, human IgG1, kappa)
heavy 1: not shown
heavy 2: not shown
light: B1 light
notes: as for B9
B17: GpH7-A5/GpH7-B3 variant G236_18N/GpL16-k0 (antibody, human IgG1, kappa)
heavy 1: not shown
heavy 2: not shown
light: B1 light
notes: as for B9
B18: GpH7-A5/GpH7-B3 variant G237_18N/GpL16-k0 (antibody, human IgG1, kappa)
heavy 1: not shown
heavy 2: not shown
light: B1 light
notes: as for B9
B19: GpH7-A5/GpH7-B3 variant G236_10E/GpL16-k0 (antibody, human IgG1, kappa)
heavy 1: not shown
heavy 2: not shown
light: B1 light
notes: as for B9
B20: GpH7-A5/GpH7-B3 variant G237_06M/GpL16-k0 (antibody, human IgG1, kappa)
heavy 1: not shown
heavy 2: not shown
light: B1 light
notes: as for B9
B21: GpH7-A5/GpH7-B3 variant L235_20W/GpL16-k0 (antibody, human IgG1, kappa)
heavy 1: not shown
heavy 2: not shown
light: B1 light
notes: as for B9
B22: GpH7-A5/GpH7-B3 variant G237_04F/GpL16-k0 (antibody, human IgG1, kappa)
heavy 1: not shown
heavy 2: not shown
light: B1 light
notes: as for B9
B23: GpH7-A5/GpH7-B3 variant L234_09D/GpL16-k0 (antibody, human IgG1, kappa)
heavy 1: not shown
heavy 2: not shown
light: B1 light
notes: as for B9
B24: GpH7-A5/GpH7-B3 variant G237_10E/GpL16-k0 (antibody, human IgG1, kappa)
heavy 1: not shown
heavy 2: not shown
light: B1 light
notes: as for B9
B25: GpH7-A5/GpH7-B3 variant G237_05P/GpL16-k0 (antibody, human IgG1, kappa)
heavy 1: not shown
heavy 2: not shown
light: B1 light
notes: as for B9
B26: GpH7-A5/GpH7-B3 variant G237_09D/GpL16-k0 (antibody, human IgG1, kappa)
heavy 1: not shown
heavy 2: not shown
light: B1 light
notes: as for B9
B27: GpH7-A5/GpH7-B3 variant G236_11K/GpL16-k0 (antibody, human IgG1, kappa)
heavy 1: not shown
heavy 2: not shown
light: B1 light
notes: as for B9
B28: GpH7-A5/GpH7-B3 variant G237_08L/GpL16-k0 (antibody, human IgG1, kappa)
heavy 1: not shown
heavy 2: not shown
light: B1 light
notes: as for B9
B29: GpH7-A5/GpH7-B3 variant L235_16H/GpL16-k0 (antibody, human IgG1, kappa)
heavy 1: not shown
heavy 2: not shown
light: B1 light
notes: as for B9
B30: GpH7-A5/GpH7-B3 variant G237_15Y/GpL16-k0 (antibody, human IgG1, kappa)
heavy 1: not shown
heavy 2: not shown
light: B1 light
notes: as for B9
B31: GpH7-A5/GpH7-B3 variant L235_15Y/GpL16-k0 (antibody, human IgG1, kappa)
heavy 1: not shown
heavy 2: not shown
light: B1 light
notes: as for B9
B32: GpH7-A5/GpH7-B3 variant G237_20W/GpL16-k0 (antibody, human IgG1, kappa)
heavy 1: not shown
heavy 2: not shown
light: B1 light
notes: as for B9

The binders below were run against T1, FcγRIIb (assay: SPR (Biacore), antibody captured, FcγR analyte; binding relative to GpH7-A5/GpH7-B3/GpL16-k0 = 100).

Binder | He/Con_2b
B1 | 150 % of control
B2 | 120 % of control
B3 | 147 % of control
B4 | 56 % of control
B5 | 312 % of control
B6 | 174 % of control
B7 | 106 % of control
B8 | 118 % of control

Each binder was assayed against T2, FcγRIIa H in the same assay as above.

Binder | He/Con_2aH
B1 | 89.9 % of control
B2 | 89 % of control
B3 | 118 % of control
B4 | 37.3 % of control
B5 | 65.4 % of control
B6 | 47.6 % of control
B7 | 75.8 % of control
B8 | 88.3 % of control

These binders were tested against T2, FcγRIIa H (assay: SPR (Biacore); He/Con_2aH divided by He/Con_2b (FcγRIIa H over FcγRIIb)).

Binder | He_2aH/2b (IIaH/IIb)
B1 | 0.6 ratio
B2 | 0.74 ratio
B3 | 0.8 ratio
B4 | 0.66 ratio
B5 | 0.21 ratio
B6 | 0.27 ratio
B7 | 0.71 ratio
B8 | 0.75 ratio

The binders below were run against T4, FcγRIIIa extracellular domain with C-terminal His tag (human, UniProt P08637 17-208) (assay: SPR (Biacore); ratio of He/Con_3a (FcγRIIIa) to He/Con_2b (FcγRIIb)).
T4 construct: extracellular domain; also called 3a; FcgRIIIa; not shown: His tag at the C terminus
T4 sequence (P08637 17-208): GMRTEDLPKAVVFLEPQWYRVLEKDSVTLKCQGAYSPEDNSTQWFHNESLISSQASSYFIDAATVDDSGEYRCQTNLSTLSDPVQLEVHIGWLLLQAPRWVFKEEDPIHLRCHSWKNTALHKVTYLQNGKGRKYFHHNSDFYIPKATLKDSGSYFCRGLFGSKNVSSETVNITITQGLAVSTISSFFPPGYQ

Binder | He_3a/2b (IIIa/IIb)
B9 | 0.39
B10 | 0.35
B11 | 0.4
B12 | 0.43
B13 | 0.67
B14 | 0.59
B15 | 0.31
B16 | 0.67
B17 | 0.39
B18 | 0.11
B19 | 0.64
B20 | 0.25
B21 | 0.52
B22 | 0.17
B23 | 0.78
B24 | 0.22
B25 | 0.44
B26 | 0.08
B27 | 0.37
B28 | 0.17
B29 | 0.77
B30 | 0.14
B31 | 0.54
B32 | 0.1

What follows are binders tested against T4, FcγRIIIa extracellular domain with … (assay: SPR (Biacore), relative to GpH7-A5/GpH7-B3/GpL16-k0 = 100).

Binder | He/Con_3a
B9 | 48.8 % (control = 100)
B10 | 38.4 % (control = 100)
B11 | 43.3 % (control = 100)
B12 | 71.2 % (control = 100)
B13 | 64.8 % (control = 100)
B14 | 33 % (control = 100)
B15 | 17.2 % (control = 100)
B16 | 79.1 % (control = 100)
B17 | 37.8 % (control = 100)
B18 | 20.3 % (control = 100)
B19 | 70.7 % (control = 100)
B20 | 31.9 % (control = 100)
B21 | 76.4 % (control = 100)
B22 | 25.3 % (control = 100)
B23 | 117 % (control = 100)
B24 | 25.4 % (control = 100)
B25 | 10.9 % (control = 100)
B26 | 17.7 % (control = 100)
B27 | 18.6 % (control = 100)
B28 | 24.9 % (control = 100)
B29 | 59.1 % (control = 100)
B30 | 22.1 % (control = 100)
B31 | 80.6 % (control = 100)
B32 | 19.7 % (control = 100)

These binders were tested against T3, FcγRIIb extracellular domain with … in the same assay as above.

Binder | He/Con_2b
B9 | 124 % (control = 100)
B10 | 111 % (control = 100)
B11 | 108 % (control = 100)
B12 | 167 % (control = 100)
B13 | 96.7 % (control = 100)
B14 | 56 % (control = 100)
B15 | 55.2 % (control = 100)
B16 | 118 % (control = 100)
B17 | 96.4 % (control = 100)
B18 | 180 % (control = 100)
B19 | 110 % (control = 100)
B20 | 130 % (control = 100)
B21 | 147 % (control = 100)
B22 | 149 % (control = 100)
B23 | 150 % (control = 100)
B24 | 114 % (control = 100)
B25 | 24.6 % (control = 100)
B26 | 223 % (control = 100)
B27 | 49.8 % (control = 100)
B28 | 148 % (control = 100)
B29 | 76.9 % (control = 100)
B30 | 152 % (control = 100)
B31 | 149 % (control = 100)
B32 | 193 % (control = 100)
